Structures are written as SMILES.

Data set [1] deals with bxpc3 and 4T1 tumor xenografts. The data set can be described thus: PET/CT imaging, subcutaneous xenograft mouse model. It counts as in vivo, NCr nude mice. The note with it: 1 hour post injection. The method, then:
In vivo PET/CT imaging was conducted in NCr nude mice bearing bxpc3 (human pancreatic adenocarcinoma cell line) and 4T1 (a murine breast cancer cell line that overexpresses integrin αvβ3 and CD13) tumor xenografts.
Mice were injected with bxpc3 cells (1 million cells in 150 μL PBS) into the subcutaneous flank of the right shoulder and 4T1 cells (1 million cells in 150 μL PBS) into the subcutaneous flank of the left shoulder.

Data set [2] can be described thus: PET/CT imaging, orthotopic xenograft mouse model. It counts as in vivo, Balb/c mice. The note with it: Balb/c, mouse, iv, total radioactivity, 1 hour post injection. The method, then: (§1) In vivo PET/CT imaging was conducted in Balb/c mice. One week after the orthotropic implantation of 1×10^6 luciferase-transfected KPCP cancer cells into the pancreas of Balb/c mice, the mice were used for PET imaging. Either the CNGRC-(^68Ga)NOTA-RGDyK heterodimer (“CNGRC” disclosed as SEQ ID NO: 1), (^68Ga)NOTA(CNGRC) (“CNGRC” disclosed as SEQ ID NO: 1), or (^68Ga)NOTA(RGDyK)] were injected into the bloodstream via tail vein injection. Blocking studies were conducted for the heterodimer studies by co-injecting 100× of CNGRC (SEQ ID NO: 1) and RGDyK. Small animal PET/CT was performed at 1 hour post injection of tracers (FIGS. 15A-15C).

For data set [3], the system named is luciferase-transfected KPCP cancer cells. The data set is described as follows: PET/CT imaging, orthotopic xenograft mouse model. Type of data set: in vivo, Balb/c mice. The following applies: 1 hour post injection. The method, then: as §1
Data set [4] in a line: PET/CT imaging, spontaneous transgenic mouse model. The following applies: KCH (Pdx1-Cre;K-RasG12D/+; HMGB1−/−), mouse, in vivo, iv, total radioactivity, 1 hour post injection. How it is done: (§2) In vivo PET/CT imaging was conducted in the genetically engineered KCH (Pdx1-Cre;K-RasG12D/+; HMGB1−/−) mouse model. High mobility group box 1 (HMGB1) is a critical regulator of autophagy, a major pathway for degradation of effete proteins and damaged organelles, and the conditional genetic ablation of HMGB1 limited to the pancreas inhibits autophagy, promotes proliferation, activates normally quiescent pathways, and renders mice extraordinarily sensitive to K-RasG12D/+-driven pancreatic carcinogenesis. The progression of PanINs from low grade PanINI to high grade PanIN3 could be observed as early as seven days (normally three-nine months) after birth in KCH (Pdx1-Cre;K-RasG12D/+;HMGB1−/−). PET imaging normally was performed˜6 weeks old KCH mice.
(§3) Either the CNGRC-(^68Ga)NOTA-RGDyK (“CNGRC” disclosed as SEQ ID NO: 1) heterodimer, (^68Ga)NOTA(CNGRC) (“CNGRC” disclosed as SEQ ID NO: 1), or (^68Ga)NOTA(RGDyK)] were injected into the bloodstream via tail vein injection. Blocking studies were conducted for the heterodimer studies by co-injecting 100× of CNGRC (SEQ ID NO: 1) and RGDyK. Small animal PET/CT was performed at 1 hour post injection of tracers (FIGS. 16A-16D).

Data set [5] concerns KCH (Pdx1-Cre;K-RasG12D/+; HMGB1−/−) mouse model. The data set can be described thus: PET/CT imaging, spontaneous transgenic mouse model. How it is done:
as §2, §3

On to `N=C(N)NCCC[C@@H]1NC(=O)CNC(=O)[C@H](CC(N)=O)NC(=O)[C@@H](NC(=O)CCOCCOCCOCCOCCNC(=O)C(CCn2nnc3c2CCC2C(CC3)C2COC(=O)NCCOCCOCCOCCOCCC(=O)NCCCC[C@@H]2NC(=O)[C@@H](Cc3ccc(O)cc3)NC(=O)[C@H](CC(=O)O)NC(=O)CNC(=O)[C@H](CCCNC(=N)N)NC2=O)N2CCN(CC(=O)O)CCN(CC(=O)O)CC2)CSSC[C@@H](C(N)=O)NC1=O` (some centres unmarked) [CNGRC-(^68Ga)NOTA-RGDyK, metal not drawn], for which the in vivo performance entry was “longer blood retention, better tumor/non-tumor ratios” in data set [1]; “longer blood retention, better tumor/non-tumor ratios” in data set [3]; “longer blood retention, better tumor/non-tumor ratios” in data set [5] (1 hour post injection). In addition, the tissue uptake at 1 h was 0.1 %ID/g in data set [2] (blood, read-out: uptake in blood); 2.2 %ID/g in data set [2] (kidney, read-out: uptake in kidney); 1.8 %ID/g in data set [2] (liver, read-out: uptake in liver); 0.1 %ID/g in data set [2] (muscle, read-out: uptake in muscle); 0.36 %ID/g in data set [2] (pancreas, read-out: uptake in pancrease); 1.1 %ID/g in data set [2] (spleen, read-out: uptake in spleen). In addition, the tissue uptake at 1 h was 0.23 %ID/g in data set [4] (uptake in blood); 5 %ID/g in data set [4] (uptake in kidney); 4.7 %ID/g in data set [4] (uptake in liver); 0.38 %ID/g in data set [4] (uptake in muscle); 3.1 %ID/g in data set [4] (uptake in spleen). The “uptake in orthotopic tumor” value in data set [3] came out at 1.4 % ID/g. Also, the “uptake in malignant pancreas” value in data set [5] (1 hour post injection) amounted to 5.9 % ID/g. Besides, the specific tumor uptake result in data set [5] (PET imaging) is recorded as “showed specific tumor uptake”.
